A short description of this series: self-splicing fitness, log relative to wild type (ln ratio); higher = more splicing; Tetrahymena group I intron in knt gene, E. coli kanamycin selection, DiMSum; sequences stand for … in CUCUCU…GGAGGGAAAAGUUAUCAGGCAUGCACCUGGUAGCUAGUCUUUAAACCAAUAGAUUGCAUCGGUUUAAAAGGCAAGACCGUCAAAUUGCGGGAAAGGGGUCAACAGCCGUUCAGUACCAAGUCUCAGGGGAAACUUUGAGAUGGCCUUGCAAAGGGUAUGGUAAUAAGCUGACGGACAUGGUCCUAACCACGCAGCCAAGUCCUAAGUCAACAGAUCUUCUGUUGAUAUGGAUGCAGUUCACAGACUAAAUGUCGGUCGGGGAAGAUGUAUUCUUCUCAUAAGAUAUAGUCGGACCUCUCCUUAAUGGGAGCUAGCGGAUGAAGUGAUGCAACACUGGAGCCGCUGGGAACUAAUUUGUAUGCGAAAGUAUAUUGAUUAGUUUUGGAGUACUCGUGGUCG
A digest of the protocol:
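A randomised library covering all eight P1ex-region intron nucleotides was built with the intron in the knt kanamycin-resistance gene on pET-22b(+) and held in E. coli BL21(DE3). Cells were grown overnight at 37°C or 30°C on LB agar, with or without 25 μg/mL kanamycin, plus 100 μg/mL carbenicillin, 50 μM IPTG and 0.2% rhamnose, and pooled colonies were amplicon-sequenced on an Illumina HiSeq 2500. DiMSum fitness is the error-weighted combination of wild-type-normalised replicate fold changes, kanamycin versus none.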

± gives the uncertainty stated by the source.

For UACGAGCAAUAUUACGAGAC, the “self-splicing fitness (ln)” value (30 °C) is -3.68 ± 0.26 and the “self-splicing fitness (ln)” value (37 °C) was -2.72 ± 0.27. For UACGAGCAAUAUUACGAGCG, in that order: -1.12 ± 0.13 and -0.262 ± 0.14. UACGAGCAAUAUUACGAGGG: the “self-splicing fitness (ln)” value (30 °C) was -1.82 ± 0.12 and the “self-splicing fitness (ln)” value (37 °C) was -2.11 ± 0.27.

Take UACGAGCAAUAUUACGAUAU: the “self-splicing fitness (ln)” value is, setting by setting: (30 °C) -2.39 ± 0.26; (37 °C) -3.25 ± 0.37.

Turning to UACGAGCAAUAUUACGAUGA, the “self-splicing fitness (ln)” value (30 °C) is -2.05 ± 0.19 and the “self-splicing fitness (ln)” value (37 °C) was -2.41 ± 0.2. For UACGAGCAAUAUUACGAUUA the same measures were -1.13 ± 0.14 and -0.74 ± 0.12. For UACGAGCAAUAUUACGCAAU the same measures were -3.04 ± 0.17 and -2.65 ± 0.18. For the sequence UACGAGCAAUAUUACGCCCG, the “self-splicing fitness (ln)” value is, setting by setting: (30 °C) -3.1 ± 0.18; (37 °C) -2.02 ± 0.17. For UACGAGCAAUAUUACGCGGU, in that order: -3.15 ± 0.2 and -2.67 ± 0.26. As to UACGAGCAAUAUUACGCUGC, the “self-splicing fitness (ln)” value (37 °C) was -2.59 ± 0.41. Take UACGAGCAAUAUUACGGACA: the “self-splicing fitness (ln)” value (30 °C) is -3.34 ± 0.26 and the “self-splicing fitness (ln)” value (37 °C) is -1.72 ± 0.17. Turning to UACGAGCAAUAUUACGGAGG, under “30 °C”, the “self-splicing fitness (ln)” value is -2.06 ± 0.5. For the sequence UACGAGCAAUAUUACGGCAA, the “self-splicing fitness (ln)” value was -1.96 ± 0.24 (30 °C) and -0.476 ± 0.18 (37 °C).

Take UACGAGCAAUAUUACGGCGU: the “self-splicing fitness (ln)” value runs as follows: (30 °C) -2.83 ± 0.33; (37 °C) -1.73 ± 0.29.

Regarding UACGAGCAAUAUUACGGCUA, the “self-splicing fitness (ln)” value is, setting by setting: (30 °C) 0.411 ± 0.22; (37 °C) 0.683 ± 0.23.

Turning to UACGAGCAAUAUUACGGGCC, the “self-splicing fitness (ln)” value (37 °C) is -3.34 ± 0.28. For UACGAGCAAUAUUACGGGUU, the “self-splicing fitness (ln)” value runs as follows: (30 °C) -2.88 ± 0.14; (37 °C) -3.21 ± 0.23. With UACGAGCAAUAUUACGGUAA, the “self-splicing fitness (ln)” value is -1.82 ± 0.37 (30 °C) and -0.747 ± 0.28 (37 °C).

As for UACGAGCAAUAUUACGGUUA, the “self-splicing fitness (ln)” value is -0.815 ± 0.11 (30 °C) and 0.152 ± 0.11 (37 °C).

As for UACGAGCAAUAUUACGUAAC, the “self-splicing fitness (ln)” value was -4.91 ± 0.41 (30 °C) and -3.7 ± 0.3 (37 °C). For UACGAGCAAUAUUACGUAGC, in that order: -3.67 ± 0.46 and -1.01 ± 0.21. With UACGAGCAAUAUUACGUCCA, the “self-splicing fitness (ln)” value runs as follows: (30 °C) -2.8 ± 0.27; (37 °C) -1.69 ± 0.27. For UACGAGCAAUAUUACGUCCG, in that order: -2.29 ± 0.13 and -1.25 ± 0.17. For UACGAGCAAUAUUACGUGCA the same measures were -3.16 ± 0.19 and -1.32 ± 0.13. Take UACGAGCAAUAUUACGUUUU: the “self-splicing fitness (ln)” value reads like this: (30 °C) -3.66 ± 0.17; (37 °C) -2.4 ± 0.16. Take UACUAGCAAUAUUACGAAUU: the “self-splicing fitness (ln)” value (30 °C) is -4.02 ± 0.42 and the “self-splicing fitness (ln)” value (37 °C) is -2.32 ± 0.25. For UACUAGCAAUAUUACGACCG the same measures were -0.634 ± 0.13 and 0.287 ± 0.16. For UACUAGCAAUAUUACGAGUC the same measures were -2.67 ± 0.31 and -1.09 ± 0.14. For the sequence UACUAGCAAUAUUACGAGUG, the “self-splicing fitness (ln)” value by setting is: (30 °C) -1.07 ± 0.083; (37 °C) -0.536 ± 0.1. For UACUAGCAAUAUUACGAGUU the same measures were -2.16 ± 0.11 and -0.685 ± 0.1.

On to UACUAGCAAUAUUACGCACC, for which the “self-splicing fitness (ln)” value reads like this: (30 °C) -1.86 ± 0.2; (37 °C) -1.22 ± 0.26. On to UACUAGCAAUAUUACGCACU, for which the “self-splicing fitness (ln)” value is, setting by setting: (30 °C) -0.822 ± 0.068; (37 °C) 0.229 ± 0.079.

Take UACUAGCAAUAUUACGCAUC: the “self-splicing fitness (ln)” value (30 °C) was -2.36 ± 0.14 and the “self-splicing fitness (ln)” value (37 °C) is -1.53 ± 0.18.

UACUAGCAAUAUUACGCCUG: the “self-splicing fitness (ln)” value is, setting by setting: (30 °C) -0.00481 ± 0.11; (37 °C) 1.03 ± 0.14.

For UACUAGCAAUAUUACGCGUU, the “self-splicing fitness (ln)” value (30 °C) is -2.33 ± 0.11 and the “self-splicing fitness (ln)” value (37 °C) is -0.827 ± 0.1.

As for UACUAGCAAUAUUACGGAAC, the “self-splicing fitness (ln)” value runs as follows: (30 °C) -3.78 ± 0.34; (37 °C) -3.03 ± 0.32.

Consider UACUAGCAAUAUUACGGGAG, for which the “self-splicing fitness (ln)” value runs as follows: (30 °C) -2.3 ± 0.11; (37 °C) -1.19 ± 0.1. Take UACUAGCAAUAUUACGGGCU: the “self-splicing fitness (ln)” value is -3.52 ± 0.28 (30 °C) and -2.87 ± 0.34 (37 °C). For UACUAGCAAUAUUACGGUCU, in that order: -1.3 ± 0.094 and -0.2 ± 0.13. For UACUAGCAAUAUUACGUACC, in that order: -2.24 ± 0.17 and -1.72 ± 0.23. For UACUAGCAAUAUUACGUGGA, in that order: -3.03 ± 0.22 and -2.47 ± 0.21. Consider UACUAGCAAUAUUACGUUGU, for which the “self-splicing fitness (ln)” value (30 °C) was -2.48 ± 0.17 and the “self-splicing fitness (ln)” value (37 °C) is -2.21 ± 0.17. For the sequence UAGAAGCAAUAUUACGAAUU, the “self-splicing fitness (ln)” value (30 °C) was -2.42 ± 0.46 and the “self-splicing fitness (ln)” value (37 °C) was -1.29 ± 0.27. For UAGAAGCAAUAUUACGACAU, the “self-splicing fitness (ln)” value was -1.569 ± 0.014 (30 °C) and -0.76 ± 0.033 (37 °C). For UAGAAGCAAUAUUACGACGU, in that order: -1.27 ± 0.1 and -0.768 ± 0.098. For UAGAAGCAAUAUUACGACUA, in that order: -0.222 ± 0.11 and 0.71 ± 0.14. For UAGAAGCAAUAUUACGAGAC the same measures were -2.67 ± 0.35 and -1.99 ± 0.3. As for UAGAAGCAAUAUUACGAUGG, the “self-splicing fitness (ln)” value is, setting by setting: (30 °C) -1.84 ± 0.097; (37 °C) -1.32 ± 0.12. Take UAGAAGCAAUAUUACGAUUA: the “self-splicing fitness (ln)” value (30 °C) is -0.441 ± 0.08 and the “self-splicing fitness (ln)” value (37 °C) was -0.0749 ± 0.093. Regarding UAGAAGCAAUAUUACGCAGG, the “self-splicing fitness (ln)” value (30 °C) was -2.7 ± 0.15 and the “self-splicing fitness (ln)” value (37 °C) was -2.19 ± 0.15.

As to UAGAAGCAAUAUUACGCCCG, the “self-splicing fitness (ln)” value (30 °C) is -0.762 ± 0.18 and the “self-splicing fitness (ln)” value (37 °C) is 0.487 ± 0.23. For UAGAAGCAAUAUUACGCCUG, in that order: -0.128 ± 0.091 and 0.251 ± 0.12. For UAGAAGCAAUAUUACGCGGU, in that order: -4.94 ± 0.42 and -2.37 ± 0.24. For UAGAAGCAAUAUUACGCGUC the same measures were -2.53 ± 0.18 and -1.56 ± 0.18. Turning to UAGAAGCAAUAUUACGCUAC, the “self-splicing fitness (ln)” value (37 °C) is -2.23 ± 0.31. UAGAAGCAAUAUUACGGAAA: the “self-splicing fitness (ln)” value was -2.02 ± 0.17 (30 °C) and -1.41 ± 0.24 (37 °C). Regarding UAGAAGCAAUAUUACGGCCA, the “self-splicing fitness (ln)” value was -0.205 ± 0.077 (30 °C) and -0.611 ± 0.081 (37 °C). For UAGAAGCAAUAUUACGGGGU, the “self-splicing fitness (ln)” value was -3.13 ± 0.17 (30 °C) and -1.27 ± 0.22 (37 °C). For UAGAAGCAAUAUUACGGUCA, in that order: -0.346 ± 0.095 and -0.338 ± 0.11. For UAGAAGCAAUAUUACGGUCC the same measures were -1.92 ± 0.22 and -1.57 ± 0.2. For UAGAAGCAAUAUUACGGUGU, in that order: -3.23 ± 0.14 and -3.06 ± 0.15. Turning to UAGAAGCAAUAUUACGUAGC, the “self-splicing fitness (ln)” value is, setting by setting: (30 °C) -3.74 ± 0.26; (37 °C) -2.43 ± 0.23.

Consider UAGAAGCAAUAUUACGUGAG, for which the “self-splicing fitness (ln)” value by setting is: (30 °C) -0.573 ± 0.06; (37 °C) -0.716 ± 0.079. For UAGAAGCAAUAUUACGUUGG, in that order: -2.54 ± 0.14 and -1.55 ± 0.14. With UAGAAGCAAUAUUACGUUGU, the “self-splicing fitness (ln)” value is -4.33 ± 0.18 (30 °C) and -2.47 ± 0.14 (37 °C). For UAGCAGCAAUAUUACGAAGU, in that order: -1.64 ± 0.13 and -1.59 ± 0.3. For UAGCAGCAAUAUUACGAAUU, in that order: -2.58 ± 0.18 and -2.66 ± 0.24.

For UAGCAGCAAUAUUACGACCU, the “self-splicing fitness (ln)” value reads like this: (30 °C) -0.287 ± 0.13; (37 °C) 0.328 ± 0.13. For UAGCAGCAAUAUUACGAUAA the same measures were -1.07 ± 0.12 and 0.133 ± 0.13. For UAGCAGCAAUAUUACGAUCA, in that order: 0.112 ± 0.088 and 0.169 ± 0.099. Consider UAGCAGCAAUAUUACGAUGA, for which the “self-splicing fitness (ln)” value (30 °C) was -0.884 ± 0.069 and the “self-splicing fitness (ln)” value (37 °C) was -0.42 ± 0.066. For UAGCAGCAAUAUUACGCAAU, in that order: -2.82 ± 0.13 and -1.68 ± 0.11.

Regarding UAGCAGCAAUAUUACGCACC, the “self-splicing fitness (ln)” value by setting is: (30 °C) -0.936 ± 0.16; (37 °C) -0.423 ± 0.16. Turning to UAGCAGCAAUAUUACGCAGA, the “self-splicing fitness (ln)” value is -1.67 ± 0.14 (30 °C) and -1.33 ± 0.088 (37 °C).

For the sequence UAGCAGCAAUAUUACGCCCC, the “self-splicing fitness (ln)” value was -1.6 ± 0.23 (30 °C) and -1.56 ± 0.31 (37 °C). For UAGCAGCAAUAUUACGCUGA the same measures were -2.19 ± 0.15 and -1.71 ± 0.18.

The values are drawn from the supplement of paper PMC7877785.
